This passage reports cell death of HeLa cells (rounding up and detachment, neutral red dye uptake) results from patent US6160106.

The target of this assay is Fas/APO-1 (human) (UniProt P25445).

For “agonistic anti-APO-1 monoclonal antibody”, the cell death of HeLa cells (rounding up and detachment, neutral red dye uptake) turned out to be 70%.
